Measured values taken from publication doi:10.1101/2022.09.27.509696 (bioRxiv, 2022).
Where “and” joins values, the source holds several entries; their conditions need not be identical. Equal entries are not always repeated.

B1: SmBiT-FAM237A (ligand)
chain: HSQTDLLALSQADPQCWESSSVLLLEMWKPRVSNTVSGFWDFMIYLKSSENLKHGALFWDLAQLFWDIYVDCVLSRNHGL
B2: mature human FAM237A (family with sequence similarity 237 member A) (ligand)
chain: B1 chain
modifications: amidated C-terminus; one intramolecular disulfide bond

Experiments:
Assay in all cases: split reporter
[1] = target: T1, sLgBiT-GPR83 (N-terminally sLgBiT-fused mature human GPR83) (human, UniProt Q9NYM4-1 17-423)
[2] = target: T1, sLgBiT-GPR83 (N-terminally sLgBiT-fused …); remark: listed apart in the source
[3] = target: T1, sLgBiT-GPR83 (N-terminally sLgBiT-fused …); remark: listed apart in the source

T1 sequence (Q9NYM4 17-423): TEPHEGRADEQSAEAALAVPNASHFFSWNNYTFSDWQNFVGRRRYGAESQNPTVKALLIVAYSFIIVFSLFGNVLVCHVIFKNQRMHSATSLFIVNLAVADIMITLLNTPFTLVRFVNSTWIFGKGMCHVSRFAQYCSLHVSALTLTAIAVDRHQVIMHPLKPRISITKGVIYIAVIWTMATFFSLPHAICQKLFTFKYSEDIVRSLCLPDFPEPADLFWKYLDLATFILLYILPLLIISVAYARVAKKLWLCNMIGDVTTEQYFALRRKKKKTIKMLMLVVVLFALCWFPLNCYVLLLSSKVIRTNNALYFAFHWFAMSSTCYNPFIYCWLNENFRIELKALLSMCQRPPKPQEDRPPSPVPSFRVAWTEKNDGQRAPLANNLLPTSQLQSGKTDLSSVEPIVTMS

| Binder | Kd [1] [nM] | association half-life [2] [min] | dissociation half-life [2] [min] | IC50 [3] |
| --- | --- | --- | --- | --- |
| B1 | ~70 | ~3 | ~7.5 | – |
| B2 | – | – | – | 13.5 nM and 12.9 nM and 16.9 nM |
